Results as given in the supplement of paper PMC10126150.
± gives the standard deviation of the averaged measurements.

System: ATP
Assay: switch fluorescence ratio, 500 uM ATP over buffer (Cy3 cluster intensity, sum of 5 cycles each) (fold (ratio)); higher = stronger signal-on switching upon ATP binding; sequences stand for … in TCGTCGGCAGCGTCAGATGTGTATAAGAGACAGTTTTTTTTTTTTTTTTTTTTTTTTT…TC
Details: aptamer strand: ATP DNA aptamer (quencher-CACCTGGGGGAGTATTGCGGAGGAAGG + anchor), 100 nM annealed; ATP concentration: 500 uM
How it was run: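 Cy3-labelled switching-strand clusters on a modified Illumina MiSeq flow-cell were annealed to 100 nM quencher-labelled ATP aptamer, imaged in selection buffer, then imaged after 15 min with 500 uM ATP at 22 °C. Five buffer/ATP cycles ran, with NaOH stripping and re-annealing between them. The fluorescence ratio is summed target-cycle over summed buffer-cycle Cy3 intensity per cluster, averaged per switch-domain sequence. Clusters outside 100-1000 RFU were excluded.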
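Also: ATP exposure 15 min at 22 °C before imaging.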

| Sequence | switch fluorescence ratio |
| --- | --- |
| TGAAGACTGA | 1 ± 0.012 |
| TGAAGATAAC | 1.02 ± 0.026 |
| TGAAGCCAGT | 1 ± 0.024 |
| TGAAGGACGT | 0.996 ± 0.019 |
| TGAAGGAGGG | 1.02 ± 0.06 |
| TGAAGGCCGG | 0.995 ± 0.033 |
| TGAAGGCGGG | 1 ± 0.039 |
| TGAAGGGGGC | 0.994 ± 0.045 |
| TGAAGGGGGT | 0.999 ± 0.032 |
| TGAAGGGTCA | 0.968 ± 0.022 |
| TGAAGGTACA | 1.034 ± 0.0031 |
| TGAAGGTTAC | 1.02 ± 0.012 |
| TGAAGTAACA | 1.06 ± 0.038 |
| TGAAGTAAGC | 1.09 ± 0.12 |
| TGAAGTAATC | 1.42 ± 0.43 |
| TGAAGTATGG | 0.9517 ± 0.0024 |
| TGAAGTCCTT | 1.005 ± 0.0037 |
| TGAAGTGTTG | 0.99 ± 0.019 |
| TGAATAAGAG | 1.01 ± 0.026 |
| TGAATATTGT | 1.04 ± 0.051 |
| TGAATCTAGA | 1.01 ± 0.019 |
| TGAATGATGG | 1.02 ± 0.015 |
| TGAATGTGGT | 0.97 ± 0.014 |
| TGAATTATGT | 0.985 ± 0.048 |
| TGAATTCTTT | 0.968 ± 0.041 |
| TGAATTTAT | 0.998 ± 0.012 |

| Sequence | switch fluorescence ratio |
| --- | --- |
| TGACAAAG | 0.9776 ± 0.0029 |
| TGACAAAGA | 1 ± 0.022 |
| TGACAATGTT | 0.994 ± 0.052 |
| TGACACTTAA | 1.07 ± 0.096 |
| TGACAGGATT | 0.9946 ± 0.0083 |
| TGACAGGGCT | 1.01 ± 0.011 |
| TGACCGCCGT | 1.06 ± 0.035 |
| TGACGAAGCG | 1.05 ± 0.035 |
| TGACGAGCTG | 1.03 ± 0.035 |
| TGACGGAGAA | 1.01 ± 0.015 |
| TGACGGCCTG | 1.06 ± 0.022 |
| TGACGGGAAT | 1.01 ± 0.013 |
| TGACGGGCGG | 1 ± 0.015 |
| TGACGGTGTC | 1.02 ± 0.0035 |
| TGACGTCAGT | 0.972 ± 0.014 |
| TGACTATGAT | 0.998 ± 0.015 |
| TGACTATTAA | 0.9845 ± 0.0022 |
| TGACTCACGG | 1.08 ± 0.029 |
| TGACTTCGCT | 1.2 ± 0.18 |
| TGACTTGGAC | 1.02 ± 0.013 |
| TGACTTTGTG | 1.02 ± 0.044 |
| TGACTTTTTC | 1.03 ± 0.016 |
| TGAGAAAAAT | 0.973 ± 0.018 |
| TGAGAACCCG | 1.02 ± 0.051 |
| TGAGAGAGGG | 0.983 ± 0.012 |
| TGAGAGATTG | 0.9773 ± 0.007 |

| Sequence | switch fluorescence ratio |
| --- | --- |
| TGAGAGTAT | 1.01 ± 0.034 |
| TGAGAGTGGG | 1.01 ± 0.021 |
| TGAGATATTG | 0.997 ± 0.018 |
| TGAGATCGCG | 1.004 ± 0.0018 |
| TGAGATGGTG | 0.9739 ± 0.0014 |
| TGAGATTTAG | 0.988 ± 0.026 |
| TGAGATTTTT | 0.975 ± 0.048 |
| TGAGCAGCGG | 1.01 ± 0.044 |
| TGAGCCTTAG | 1.09 ± 0.05 |
| TGAGCGGGTG | 1.01 ± 0.01 |
| TGAGCGTG | 0.9816 ± 0.0078 |
| TGAGCTAGGG | 1.005 ± 0.0026 |
| TGAGCTAGGT | 1 ± 0.033 |
| TGAGCTGGCT | 0.989 ± 0.021 |
| TGAGGAGGTT | 0.981 ± 0.072 |
| TGAGGCCGAA | 1.015 ± 0.0088 |
| TGAGGCTAGG | 1.02 ± 0.017 |
| TGAGGGAGGG | 1.01 ± 0.017 |
| TGAGGGATGG | 1.01 ± 0.017 |
| TGAGGGGATC | 1.02 ± 0.015 |
| TGAGGGGGAT | 1 ± 0.051 |
| TGAGGGGGGT | 0.976 ± 0.025 |
| TGAGGGGTAA | 0.993 ± 0.042 |
| TGAGGGGTCA | 1.002 ± 0.0076 |
